Results as given in patent US20060035302A1, “Kinase substrates with multiple phosphorylation sites” (Applera Corporation, priority 2004, published 2006).
[ ]: non-standard residue; d: D form. The star is where a group is joined. dye2 = 5-carboxy-2′,7′-dipyridyl-sulfonefluorescein (Dye 2); Undecanoyl = CCCCCCCCCCC(=O)*; code O = not defined here

Assays:
[1] = cited from earlier work
protein kinase p38βII = protein kinase p38βII (Homo sapiens, UniProt Q15759); assay: Fluorogenic protein kinase assay, real-time fluorescence in 384-well plates; format: biochemical; conditions: substrate 8 μM; 10 and 100 μM ATP; compared with the kinase substrate with one recognition moiety (FIGS. 6A-6B)
Method: Kinase assays were performed using Coming 384-well, black, non-binding surface (NBS), microwell plates. Fluorescence was read in real time using a […] Gemini XS plate reader, with excitation and emission set at 500 and 550 respectively. The plate was read every minute for one hour at ambient temperature
Concentrations of dye-labeled peptides were determined by dilution of the purified peptides into dimethylformamide (200 μL) with 1 M NaOH (5 μL) and measuring the absorbance of either 5-carboxy-2′,7′-dipyridyl-sulfonefluorescein (i.e. dye2) at its absorbance maximum (548 nm) or 2′,7′,4,7-tetachloro-5-carboxy fluorescein (i.e. 2′,7′-dichloro-5-carboxy-4,7-dichlorofluorescein or “tet”) at its absorbance maximum (541 nm). The extinction coefficient of both dyes was assumed to be 80,000 cm^−1M^−1.
[…] The solution was pipetted into wells of a 384-well plate ([…] per well). Varying concentrations of ATP (final conc 10 and 100 μM) were added to the wells to initiate the kinase reaction. The plate was read at 500 nm excitation, 550 nm emission, each minute for 1 hour. The signal to background ratio for the kinase substrate with two recognition moieties (compound 2) was improved as compared to the signal to background ratio for the kinase substrate with one recognition moiety.

[2] = Net charge of substrate from its charged groups; format: physicochemical; conditions: pH 7.6; unphosphorylated substrate
Description: The net charge of the substrate can be established by including an appropriate number of negatively and positively charged groups in the substrate. For example, to establish a net neutral charge (net charge=0), the substrate is designed to contain an equal number of positively and negatively charged groups. […] Aspartate and glutamate contain carboxyl side chains having a single negative charge. A phosphoserine residue carries two negative charges on a phosphate group. […] In addition, the fluorescent moiety may also contain charged groups that should be considered to obtain a particular net charge of the substrate.
This is offset by the guanidinium groups in the two arginine residues, for a total of two positive charges. Thus, the net charge of the compound is about 0 at pH 7.6.

[3] = molecular target: T1, C11-OOK(dye2)RRIPLSPLSPOOK(C11)-amide
T1 chain: KRRIPLSPLSPK

[4] = molecular target: T2, C11OOK(dye 2)RRIPLSPOOK(C11)NH2
T2 chain: KRRIPLSPK

In the case of `N[C@@H](CS)C(=O)O` [Cysteine (C), Cysteine], the “pK / pKa of side chain” value [1] is listed as “about 8”.

In the case of `N[C@@H](Cc1c[nH]cn1)C(=O)O` [Histidine (H), Histidine], the “pK / pKa of side chain” value [1] is given as “about 7”.

For “C11—OOK(dye2)RRIPLSPLSPOOK(C11)-amide ({Undecanoyl-code O-code O}-K(dye2)RRIPLSPLSP[code O][code O]K(Undecanoyl)-NH2; reading uncertain; also: printed as C11—OOK(dye2)RRIPLSPLSPOOK(C11)-amide) [compound 2, kinase substrate for p38βII; two recognition moieties, two hydrophobic moieties, Dye2]”, the “signal to background ratio” value (protein kinase p38βII) was “improved signal to background ratio” and the net charge [2] was “about 0”.

B1: protein kinase p38βII (protein)
chain: MSGPRAGFYRQELNKTVWEVPQRLQGLRPVGSGAYGSVCSAYDARLRQKVAVKKLSRPFQSLIHARRTYRELRLLKHLKHENVIGLLDVFTPATSIEDFSEVYLVTTLMGADLNNIVKCQALSDEHVQFLVYQLLRGLKYIHSAGIIHRDLKPSNVAVNEDCELRILDFGLARQADEEMTGYVATRWYRAPEIMLNWMHYNQTVDIWSVGCIMAELLQGKALFPGSDYIDQLKRIMEVVGTPSPEVLAKISSEHARTYIQSLPPMPQKDLSSIFRGANPLAIDLLGRMLVLDSDQRVSAAEALAHAYFSQYHDPEDEPEAEPYDESVEAKERTLEEWKELTYQEVLSFKPPEPPKPPGSLEIEQ
With B1 the “signal to background ratio (fluorescence kinase assay, 10 and 100 µM ATP)” value [3] was “The signal to background ratio for the kinase substrate with two recognition moieties (compound 2) was improved as compared to the signal to background ratio for the kinase substrate with one recognition moiety”, the “signal to background ratio, fold improvement over the substrate with one recognition moiety” value [3] was “improved the signal to background ratio 3 to 5 fold” and the “rate of reaction / signal to background ratio (fluorescence kinase assay, 10 and 100 µM ATP)” value [4] was “comprising two protein kinase recognition moieties has an improved signal to background ratio as compared to the kinase substrate comprising one protein kinase recognition moiety, C11OOK(dye 2)RRIPLSPOOK(C11)NH2”.
